# Data published in paper PMC5703909, “Bactofilin-mediated organization of the ParABS chromosome segregation system in Myxococcus xanthus” (Nature Communications, 2017).
# T1: His6-ParA (M. xanthus, UniProt Q1CVJ3 1-283)
# T1 construct: DNA partitioning ATPase ParA of Myxococcus xanthus; Only soluble with ATP, which restricted the analyses to the dimeric form; also called ParA·ATP; purified ParA; source: E. coli Rosetta(DE3)pLysS with pAH17, purified (HisTrap HP) in the presence of magnesium-ATP
# T1 sequence (looked up): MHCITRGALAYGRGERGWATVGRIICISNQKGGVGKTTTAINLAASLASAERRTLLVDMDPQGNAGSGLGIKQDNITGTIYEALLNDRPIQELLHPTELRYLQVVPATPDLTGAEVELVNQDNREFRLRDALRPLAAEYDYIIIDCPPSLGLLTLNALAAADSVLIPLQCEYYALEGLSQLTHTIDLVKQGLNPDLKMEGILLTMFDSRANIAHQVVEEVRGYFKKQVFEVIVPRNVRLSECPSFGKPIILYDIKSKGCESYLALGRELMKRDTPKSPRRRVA
# B1: His6-PadC_(Δ1-281) (domain or fragment, M. xanthus, UniProt Q1D3H3 282-489, looked up)
# chain: PEPEQRLSGRVTTVLLPLEKLQDESAFKLRPEGDVSGLATDIARLGQLFPVDVRPAGEDRYQLVCGFRRVAALRFLKRDAVQARIHLRLSDEDALVMSLAEAIHATPVGPEVLEAKRDELEAQGRLSAAVRDMLEKALATEDTLAPEGVEEEIDADELAQEVAQRLGAINQDLSLLADVFAALDESRKAELLMQLRYSSELVTYLEGL
# modifications: biotinylated with EZ-Link NHS-PEG4-Biotin where it was loaded on the sensor
# notes: PadC (MXAN_4634) of Myxococcus xanthus lacking residues 1-281; holds the ParB-like nuclease (ParBC) domain; no cleavage of the tag is described; also called PadCΔN; N-terminally truncated variant of PadC; source: E. coli Rosetta(DE3)pLysS with pMO002, purified (HisTrap HP, MonoQ)
# Legend:
# His6-ParA = molecular target: T1, His6-ParA; assay: BLI; BLItz, streptavidin (SAX) sensors loaded with biotinylated PadCΔN, ParA as analyte; BLItz binding buffer with 150 mM potassium glutamate, 5% glycerol and 10 mM ATP; conditions: both partners purified
# His6-PadC_(Δ1-281) = molecular target: B1; assay: BLI; BLItz, streptavidin (SAX) sensors loaded with biotinylated BacPC, PadCΔN as analyte; 25 mM HEPES/KOH pH 7.6, 100 mM KCl, 10 mM MgSO4, 1 mM DTT, 10 µM BSA, 0.01% Tween; conditions: both partners purified
Binder,Kd (His6-ParA),Kd (His6-PadC_(Δ1-281))
B1,0.9 µM,
"His6-BacP_(Δ1-115) (domain or fragment, M. xanthus, UniProt Q1D3H2 116-240, looked up, biotinylated with EZ-Link NHS-PEG4-Biotin for loading on the sensor, bactofilin BacP of Myxococcus xanthus lacking residues 1-115 (the C-terminal extension); no cleavage of the tag is described; also called BacPC; C-terminal fragment of BacP; source: E. coli Rosetta(DE3)pLysS with pIB154, purified (HisTrap HP)) DVEPGRLPAERPAVVRPTAVTRPTATPARPTIPAARPMPPPPPSRPTPPPPPARPSAPPAVTRPSAPITRPGLGGLGSKPLPPPPPTRVERAEPQAGQAGSAEPPTPVLVGAGAKKKVVVKKKTR",,0.34 µM
